Measurements published in patent US9907853B2, “Approach to treatment of hyperglycemia using a nanoparticle encapsulated peptide” (University of Rochester, priority 2016, dated 2018).
Residues, ends and D or L forms follow the SMILES beside them. No end group written: not given here. *: point of attachment. Myristoyl = CCCCCCCCCCCCCC(=O)*

Experiments:
[1] = biological target: T1, IRK (insulin receptor β-subunit) (Homo sapiens, UniProt P06213); assay: IRK autophosphorylation in vitro ([32P]-ATP); type: biochemical; settings: 20 μM peptide
T1 construct: Insulin receptor β-subunit (IRK); purchased Enzo Life Sciences (Farmingdale, N.Y.)
Procedure: (§1) FIG. 4A depicts P2 stimulate IRK autophosphorylation in vitro. IRK was incubated in vitro with 20 μM of peptide P2 (KYCCSRK (SEQ ID NO: 2)), peptide a (KKRILHC (SEQ ID NO: 5)) or peptide b (KRNRYLSF (SEQ ID NO: 6)) and [^32P]-ATP. The [^32P] incorporation was quantified. FIG. 4B depicts P2 stimulate IRK kinase activity in vitro; identification of IRK inhibitory peptide. A similar assay was performed as in FIG. 4A, except that the IRK peptide substrate was included. FIG. 4C depicts P2 is both a substrate and activator of IRK kinase activity in vitro. Assays using sequence variant (P2Y-F; KFCCSRK (SEQ ID NO: 9)) of P2 were performed as in FIG. 4B. FIG. 4D depicts P2 stimulates IRK kinase activity in the cell; peptide “a” is an inhibitor. […] The activity as measured in four livers of P2 injected and four control mice is shown.
(§2) Purified IRK was assayed as previously (Lerner-Marmarosh et al., 2005, PNAS 102:7109-14), using 300 μM IRS-1 Y608 peptide substrate. IRK autophosphorylation was determined as described earlier (Gibbs et al., 2012, J Biol Chem 287:1066-79). hBVR-based peptides (20 μM) were added as activators or inhibitors. […] Incorporation of ^32P was determined by liquid scintillation counting. […] Immunoprecipitates bound to protein A/G-agarose were washed in lysis buffer, followed by IRK assay buffer, and kinase activity was measured as before (Lerner-Marmarosh et al., 2005, PNAS 102:7109-14). […]

[2] = biological target: T2, IRK (Homo sapiens, UniProt P06213); assay: IRK kinase activity immunoprecipitated from peptide-treated HEK cells; type: cell-based; set-up: IRK was immunoprecipitated from cell lysates and assayed using the IRS peptide as substrate; endogenous in cells; host or cells: HEK293; settings: 40 μM myristoylated peptide, 15 minutes
Procedure: as §1, §2

[3] = biological target: T2, IRK; settings: cited from earlier work
[4] = test system: human skeletal muscle (HSKM) cells; assay: 3H-deoxyglucose uptake in human skeletal muscle cells; type: cell-based; settings: 2 hours treatment, 20 μM peptide (insulin added with 3H-deoxyglucose)
Procedure: Insulin, when used, was added at the same time as 3H-deoxyglucose. * P<0.05, ** P<0.01. […] HSKM cells were starved overnight as in described in FIG. 2A. […] Glucose uptake was measured as in A. […] Treatment with peptide nanoparticles was for 1 h. Glucose uptake was measured as described in FIG. 2A. Cultures of HEK293 were maintained in DMEM with 10% FBS. Cells were starved overnight in medium with 0.1% FBS. When used, insulin was added to serum-starved cultures at 100 nM. Human skeletal muscle cells were maintained in 1:1 DMEM:F12 medium containing 15% FBS. […] Cells were washed 3 times with cold PBS and solubilized in 150 μl 50 mM NaOH. Radioactivity was measured and normalized to protein concentration. Assessments were made in triplicate and experiments were repeated three times.

[5] = test system: HepG2 cells; assay: 3H-deoxyglucose uptake in HepG2 cells; type: cell-based; settings: starved overnight, 1 h treatment
Procedure: FIG. 2A depicts Nanoparticle delivery of peptide P2 to human skeletal muscle (HSKM) cells stimulates glucose uptake. HSKM cells were grown in low glucose, low FBS medium overnight, then media was replaced with PBS containing 1% BSA for 1 h. Cells were pretreated for 2 hours with 20 μM myristoylated P2 or with 10 or 20 μM P2-nanoparticles, followed by measuring 3H-deoxyglucose uptake over a 15 minutes interval. Insulin, when used, was added at the same time as 3H-deoxyglucose. * P<0.05, ** P<0.01. FIG. 2B depicts a time course of glucose uptake stimulation by P2. HSKM cells were starved overnight as in described in FIG. 2A. Medium was changed to glucose-free DMEM with 1% BSA for 1 hour prior to treatment with 20 μM myr-P2 or with P2-nanoparticles for the indicated times. Glucose uptake was measured as in A. FIG. 2C depicts P2-nanoparticles affect glucose uptake in HepG2 cells. HepG2 cells were starved in low glucose DMEM with 0.1% FBS overnight. Treatment with peptide nanoparticles was for 1 h. Glucose uptake was measured as described in FIG. 2A.
Glucose uptake was assessed using 2-deoxy 1-[^3H] glucose as described previously (Lerner-Marmarosh et al., 2005, PNAS 102:7109-14), with modification. […] Radioactivity was measured and normalized to protein concentration. […]

[6] = test system: GSK3α; assay: GSK3α phosphorylation in HEK cells (Western blot); type: cell-based; settings: 40 μM myristoylated peptide 15 minutes or insulin 100 nM
Procedure: (§3) FIG. 6A depicts Phosphorylation of GSK3α in P2-stimulated cells. Lysates of cells treated as in FIG. 5A were analyzed by Western blot; the blot was probed sequentially with antibodies to phospho-GSK3α-S21 and GSK3α. The signals were quantified by densitometry. FIG. 6B depicts Phosphorylation of GSK3β in P2-stimulated cells. Identical samples to those in FIG. 6A were probed with anti-phospho-GSK3β-S9 antibody, followed by anti-GSK3β.
HEK cells were incubated in low glucose DMEM with 0.1% FBS, overnight. Cells were treated with 40 μM myristoylated peptide for a total of 15 min; insulin or IGF-1, if used, were included for the final 10 minutes. Cells were harvested, lysed in buffer with triton ×100, and whole cell lysates were analyzed for phosphorylated Akt (T^308, S^473) or GSK3 (α-S^21, β-S^9) species by Western blotting. Each blot was stripped and probed with anti-Akt1 or anti GSK3α or GSK3β antibody, as appropriate, to control for loading.

[7] = test system: GSK3β; assay: GSK3β phosphorylation in HEK cells (Western blot); type: cell-based; settings: 40 μM myristoylated peptide 15 minutes or insulin 100 nM
Procedure: as §3, with “anti-GSK3β. […] Cells were harvested, lysed in buffer with triton ×100, and whole cell lysates were analyzed for phosphorylated Akt (T^308, S^473) or GSK3 (α-S^21, β-S^9) species by Western blotting. Each blot was stripped and probed with anti-Akt1 or anti GSK3α or GSK3β antibody, as appropriate, to control for loading.” for “anti-GSK3β.”

[8] = test system: Akt1; assay: Akt kinase activity immunoprecipitated from HEK cells, Crosstide substrate; type: cell-based; settings: genistein 50 μM added 30 minutes prior to peptide or insulin
Procedure: Cells were serum starved overnight, and treated with myristoylated peptides and insulin as in FIG. 5A. Genistein (50 μM) was added to cells 30 minutes prior to treatment with peptide or insulin. Akt1 was immunoprecipitated from the lysates and kinase activity was measured using Crosstide as substrate.
Thus, Akt kinase activity was measured in cells loaded with either P2 or the scrambled P2 peptide, P2sc. Cell lysates were immunoprecipitated with anti-Akt antibody and immunoprecipitates were examined for phosphorylation of crosstide, an Akt specific substrate.

[9] = biological target: T1, IRK (insulin receptor β-subunit); assay: IRK kinase activity in vitro towards IRS peptide substrate; type: biochemical; settings: 20 μM peptide
Procedure: as §1, §2

In the case of “myr-KKRILHC (SEQ ID NO: 5) (Myristoyl-KKRILHC) [peptide (a), BVR based peptide]”, the “IRK autophosphorylation ([32P] incorporation)” value [1] is reported as “did not lead to increased [^32P] incorporation” and the “effect on IRK kinase activity in the cell” value [2] is reported as “potent inhibitor of the kinase”.
In the case of `CCCCCCCCCCCCCC(=O)N[C@@H](CCCCN)C(=O)N[C@@H](Cc1ccc(O)cc1)C(=O)N[C@@H](CS)C(=O)N[C@@H](CS)C(=O)N[C@@H](CO)C(=O)N[C@@H](CCCNC(=N)N)C(=O)N[C@@H](CCCCN)C(=O)O` [P2, myr-KYCCSRK (SEQ ID NO: 2)] (Myristoyl-KYCCSRK-OH; N-terminus and C-terminus assumed), the “Km of the kinase” value [3] is given as “without changing Km”.
For “myr-KRNRYLSF (SEQ ID NO: 6) (Myristoyl-KRNRYLSF) [peptide (b), BVR based peptide]”, the “IRK autophosphorylation ([32P] incorporation)” value [1] was “did not lead to increased [^32P] incorporation”.
For insulin, the glucose uptake [4] was “stimulated glucose uptake to about the same extent”, the glucose uptake [5] was “more robust response” and the “phosphorylation of GSK3α at S21” value [6] was “enhanced phosphorylation”. For the same molecule, the “phosphorylation of GSK3β at S9” value [7] was “enhanced phosphorylation”.
In the case of `O=c1c(-c2ccc(O)cc2)coc2cc(O)cc(O)c12` [genistein], the “Akt activation by either insulin or P2” value [8] is reported as “prevented Akt activation”.
In the case of KFCCSRK (SEQ ID NO: 9) [P2Y-F], the “effect on IRK kinase activity / substrate phosphorylation” value [9] is reported as “significant decrease in substrate phosphorylation”.
